Consider 40 sequences from the nanobody polyreactivity screen of Harvey et al. (2022).

The data set is described as follows: yeast display, Sf9 membrane polyspecificity reagent, FACS + sequencing; frameworks hold sequencing errors. The method, boiled down:
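Synthetic nanobody libraries on Saccharomyces cerevisiae BJ5465 were galactose-induced for 36–48 hours, stained 1 hour at 4 °C with 10% biotinylated, detergent-solubilized Sf9 membrane reagent and enriched on streptavidin microbeads. FACS then separated cells into low and high (top ~1%) gates by anti-HA (expression) and streptavidin (reagent binding) fluorescence. Genes were colony-PCR amplified, MiSeq 2 × 250 sequenced and CDR-length filtered. A clone's polyreactivity label is that of its gate of origin.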
Take “QVQLVESGGGLVQAGGSLRLSCAASGSTFVSNAMGWYRQAPGKEREFVAAISGSGGSTYYADSVKGRFTISRDNAMNTVYLQMNSLKPEVTAVYYCATAGRYGRYRTYPYRSKYDYWGQGTQVTVSS”: the “polyreactivity (PSR sort gate)” value is “high polyreactivity”.
“QVQLEESGGGLVQAGGSLRLSCAASGSTFTFYAMGRYRQAPGKERELVAAINGRGGSTYYADSVKGRFTISRDNAKNTVYLQMNSLKPEDTAVYYCATRLYYSVRYNMGYWGQGTQVTVSS”: the “polyreactivity (PSR sort gate)” value is “high polyreactivity”.
Turning to “QVQLVESGGGLVQAGGSLRLSCAASGSTFASNPMGGYRQAPGKERELVAAISGSGGSTYYADSVKGRFTISRDNAKNTVYLQMNSMTPEDTAVYYCNAAVAYYSYSYYTKVGVDYWGQGSQVTVSS”, the “polyreactivity (PSR sort gate)” value is “high polyreactivity”.
As to “QVQLVESGGGLVQAGGSLRLSCCASGFTVSSYARAWYRQAPGKERELVAAITYRGGSTYYADSVKGRFTISRDNAKNTVFLLMNSLKPEDTAVYYCAARWGYRMYWGQGTQVTVSS”, the “polyreactivity (PSR sort gate)” value is given as “high polyreactivity”.
On to “QVQLVESGGGLVQAGGSLRLSCAASGSTFSYYTMGWYRQAPGKEREFVAAISNSGSRTYYADSVKGRFTISRDNAKNTVYLQMNSLKPEDTAVYYCNAAYGYRFPRDYWGQGTQVIVSS”, for which the “polyreactivity (PSR sort gate)” value is “high polyreactivity”.
In the case of “QDQLVESGGGLVQAGGSLSLSCAAYGRIFSYNAMGWYRQAPGKERELVAAISYSGGRTYYADSVKGRFTISRDTAKNTVYLQMNSLKPEDTAVYYCAAEAHLAGYYRYYGGYGYDYWGQGTQVTVSS”, the “polyreactivity (PSR sort gate)” value is reported as “high polyreactivity”.
Consider “QVQLVESGGGLVQAGGSLRLSCAASGLIFSYYAMGWYRQAPGKERELVAAIDWISGSTYYADSVKGRFTISRDNAKNTVYLQMNSLKPEDTAVYYCAAYGSFWYAGFGYWGQGTQVTVSS”, for which the “polyreactivity (PSR sort gate)” value was “low polyreactivity”.
For the sequence “QVQLVESGGGLVQAGGSLRLSSAASGLTFAYYTMGWYRQAPGKERELVAAISRSGSGTYYADSVKGRFTISRDNAKNTVYLQMNSLKPEDTAVYYCATRYYLKFLDGYNYWGQGTQVTVSS”, the “polyreactivity (PSR sort gate)” value is “high polyreactivity”.
For “QVQLVESGGGLVQAGGSLRLSSAASGRIFTINAMGWYRQAPGKERELFASSRSTGGSTYYADSVKGRFTISRDNAKNTFYLQMYSLKPVDTAVYYCDAQYANSIDYRSSYRRDYWGQGTQVTVSS” the value was “low polyreactivity”; for “QVQLVESGGGLVQAGRSLRLSCAASGSTFDGYAMGWYRQAPGKERELVAAISYSGSSTYYADSVKGRFTNSRDNAKNTVYLQMNSLKPEDTAVYYCAVDDTHPFGPDGGGDYWGQGTQVTVSS”, “low polyreactivity”; for “QVQLVESGGRLVQAGGSLRLICAASGSTFYPYAMGWYRQAPGKERELSTDADSVKGRFTISRDNAKNSVYLQMNSLKPEDTAVYYCAALHWRWYDYWGQGTQVTVSS”, “low polyreactivity”.
For the sequence “QVQLVESGGGLVQAGGSLRLSCAASGRTFLWNDMGWYRQAPGKERELVAAITGSDGTYADSVKGRFTISRDNAKNTVYLQMNSLKPEDTAVYYCAAETYGYFPWKYDYWGQGTQVTVSS”, the “polyreactivity (PSR sort gate)” value is “low polyreactivity”.
Turning to “QVQLVESGGGLVQEGGSLRLSCAASGRILYGYAMGWYRQAPGKERELVASITSSGGSKYADSVKGRFTISRDNAKNTVYLQMNSLKPEDTAVYYGATRRGPKWQWLTYGYWGQGTQVTVSS”, the “polyreactivity (PSR sort gate)” value is “low polyreactivity”.
Take “QVHLVESGGGLVQAGGSLRLSCAASGSTFTYNTMGWYRQAPGKERELVAAITWSGGRTYYADSVKGRFTISRDNAKNTVYLQMNSLKPEDTAVYYCNADSSGVTSAYDYWGQGTQVTVSS”: the “polyreactivity (PSR sort gate)” value is listed as “high polyreactivity”.
With “QVQLVESGGGLVQAGGSLRLSCAASGFIFASNVMGWYRQAPGKERELVAAISWSGTRTYYADSVKGRFTISRDNAKNTVYLQMNSLKPEDTAVYYCAARRLYAGHQYDYWGQGTQVTVSS”, the “polyreactivity (PSR sort gate)” value is on record as “high polyreactivity”.
In the case of “QVQLVESGGGLVQAGGSLRLSCAASGSTFHVYAMGWYRQAPGKEREFVASITTRGGSTYYADSVKGRFTISRDNAKNTVYLQMNSLKPEDTAVYYCNATPYPGGNGRWRFWKSYGYWGQGTQVTVSS”, the “polyreactivity (PSR sort gate)” value was “high polyreactivity”.
As to “QVQLVESGGGLVQAGGSLRLSCPASGSIYGLYSMGWYRQAPGKERELVAVITYSVGTTYYADSVKGRFTISRDNAKNTVYLQMNSLKPEDTAVYYCAADLYWYYPWSAYYGEYDYWGQGTQVTVSS”, the “polyreactivity (PSR sort gate)” value is reported as “low polyreactivity”.
Turning to “QVQLVESGGGLVQAGGSLRLSCAASGFTFDDYAMGWYRQAPGKERELVATITNSDSSTYYADSVKGRFTISRDNAKNTVYLQMNSLKPEDTAVYYCNADGEGADSDYDYWGQGTQVTVSS”, the “polyreactivity (PSR sort gate)” value is “low polyreactivity”.
Consider “QVQLVESGGGIVQAGGSLRLSCAASGRTFRKNAMAWYRQAPGKERELVAAISASGTSTNYADSVKGRFTISRDNAKNTVYLQMISLIPEDTSVYYCDARSYGIYDYWGQGTQVTVSS”, for which the “polyreactivity (PSR sort gate)” value is recorded as “high polyreactivity”.
Regarding “QVQLVESGGGLVQAGGSLRLSCAASGRIFGGYAMGWYRQAAGKERELVAAISRRGGSTYYADSVKGRFTISRDNAKNTVYLQMNSLKPEDTAVYYCNAVLSDQARLTRVDYDYWGQGTQVTVSS”, the “polyreactivity (PSR sort gate)” value is “high polyreactivity”.
Turning to “QVQLVESGGGLVQAGGSLRLSCAASGLIFQVYTMGWYRQAPGKERELVAAISWDAGSTYYADSVKGRFTISRDNAKNTVYLLMNSLKPEDTAVYYCATTQYTTYGRRYYWGQGTQVTVSS”, the “polyreactivity (PSR sort gate)” value is “high polyreactivity”.
“QVQLVESGGGLVQAGGSLRLSCAASGSIFKRYAMGWDRQAPGKERELVASISSRGSSTNYADSVKGRFTISRDNAKNTVYLQMNSLKPEDTAVYYCAAEVYRGKYWSTYRGGDYWGQGTQVTVSS”: the “polyreactivity (PSR sort gate)” value is reported as “high polyreactivity”.
On to “QVQLVESGGGLVQAGGSLRLSCAASGFTLANYAMGWYRQAPGKERELVAAIDYSGGGTYYADSVKGRFTISRDNAKNTVYLQMNSLKPEDTAVYYCAARRWSYYSAKYDYWGQGTQVTVSS”, for which the “polyreactivity (PSR sort gate)” value is given as “low polyreactivity”.
On to “HVQLVESGGGLVQAGGSLRLSCAASGRIFYYNGMGWYRPAPGKERELVAAITPSDTSTYYAVSVKGRFTISRDNAKNTVYLQMNSLKPEDTAVYYCNADYDNHEMDYWGQGTQVTVSS”, for which the “polyreactivity (PSR sort gate)” value is reported as “low polyreactivity”.
“QVQLVESGGGLVQAGGSLRLSCAASGRTFFRYARGGYRQAPGKERELVAAISVSGASTNYADSVKGRFTISRDNAKNTGYLQMNSQKPEDTAVYYCAARVADYDGVPLYRHGDYWGPGTQVTVSS”: the “polyreactivity (PSR sort gate)” value is listed as “low polyreactivity”.
On to “QVQLVESGGGLVQAGGSLRLSCAASGLTFVPNAMRWYRQAPGKERELVAAISNNGGRTYYADSVKGRFTISRDNAKNTVYLQMNSLKPEDTAVYYCAKSLSPGERHSYDYRGQGTQVTVSS”, for which the “polyreactivity (PSR sort gate)” value was “high polyreactivity”.
Turning to “QVQLVESGGGLVQAGGSLRLSCAASGSIFIYNVMGWYRPAPGKERELVATSRGSGGSTYYADSVKGRFTISRDTAKNTVYLHMNSLKPEDTAVYFCCRRDYPYQWGRAYNYWGQGTQVTVSS”, the “polyreactivity (PSR sort gate)” value is reported as “high polyreactivity”.
On to “QVQLVESGGGLVQAGGRLRLSCAASASTIVGNAMGWYRQAPGKERELVATISNSGGRTYYADSVKGRFTISRDNSKYTVYLQMNSLKPEDTAVYYCNADIYPHDGYPWQGDYDYWGQGTQVTVSS”, for which the “polyreactivity (PSR sort gate)” value is given as “low polyreactivity”.
Turning to “QVQLVESGGGLVQAGGSLRLSCAASGRIFAAYAMGWYRQAPGKERELVATITRGGSTYYADSVKGRFTISRDNAKNTVYLQMNSLKQKDTAVYYCAVKRGFTQYKPFNYWGQGTQVTVSS”, the “polyreactivity (PSR sort gate)” value was “high polyreactivity”.
For the sequence “QVQLVESGGGLVQAGGSLRLSCAASGFIFWSNAMGWYRQAPGKERELVAAISWSGGSTYYADSVKGRFTISRDNAKNTVYLQMNSLKQEDTAVYYCAAEFWGWDWDLEYWGQGTQVTVSS”, the “polyreactivity (PSR sort gate)” value is “high polyreactivity”.
Consider “QVQLQECGGALVQAGGSLRLSCAASGTFSNSEKWLYCQAPGKERELVSTIGVGGSTNYADSVKGRFTISRDNAKNTVYLQLNSLKPEDTAVYHCAAYGAASYFHYYRGQGTQVTVSS”, for which the “polyreactivity (PSR sort gate)” value is listed as “low polyreactivity”.
As for “QVQLVESGGGLVQAGGSLSLSCAASGSTFNRNAMGWDRQAPGKEREFVAAITWSGGSTYYADSVKGRFTISRDNAKNTVYLQMNSLKPEDTAVYYCNADRFSSRHSYDYWGQGTQVTVSS”, the “polyreactivity (PSR sort gate)” value was “low polyreactivity”.
Take “QVQLVESGGGLVQAGGSLRLSCAASGRTFPYNAMGWYRQAPGKERELVASITYNGGSTYYADSVKGRFTISRDNAKNTVYLQMISLKPEDTAVYYCAKLFRTYYATYNYWGQGTQVTVSS”: the “polyreactivity (PSR sort gate)” value was “high polyreactivity”.
For “QVQLVESGGGLVQAGGSLRLSCAASGINFGYNVMGWYRQAPGKERELVAAISGSGSSTYYADSVKGRFTISRDNAKNTVYLQMNSLKPEDTAVYYCARQRYEYRTTYYYWGQGTQVTVSS” the value was “high polyreactivity”.
Turning to “QVQHVESGGGLVQAGGSLRLSCAASGSTIRYYTMGWYRQPPGKERELVAAITYSGGSTYYADSVKGRFTISRDNAKNTVYLQKNSLKPEDTAVYYCAKRWSQPKYDYWGQGTQVTVSS”, the “polyreactivity (PSR sort gate)” value was “high polyreactivity”.
For “QVQLQESVGGLVQAGGSLRLSCAASGNIFPTDRMGWYRQAPGKELEFVATISHGGSTNYADSVKGRFTISRDNAKNTVYLQMNSLKPEDTAVYYCAVWSLGRWRHYYWGQGTQVTVRS” the value was “low polyreactivity”; for “QVQLVESGGGLVQAGGSLRLSCAASGYIFDRYAMGWYRQAPGKERELVATITRRGGSTYYADSVKGRFTISRDNAKNTVYLQMNSLKPEDSAVYYCAKRSPGTYIAMGYWGQGTQVTVSS”, “high polyreactivity”.
Consider “QVQLVESGGGLVQAGGSLRLSCAASGSTFSRNAMGWYRQAPGKERELVASITRGGSTYADSVKGRFTISRDNAKNTVYLQMNSLKPEDTAVYYCAKSVTGWRGLWYTPRNYYWGQGTQVTVSS”, for which the “polyreactivity (PSR sort gate)” value is recorded as “high polyreactivity”.
Consider “QVQLVESGGGLVQAGGSLRLSCAASGSTFTKNAMGWYRPAPGKERELVAVISSGGSTNYADSVKGRFTISRDNAKNTVDLQMNSLKPEDTAVYYCAAEHYILYDYLWAYDYWGQGTQVTVSS”, for which the “polyreactivity (PSR sort gate)” value is given as “high polyreactivity”.
For the sequence “QVQLVESGGGLVQAGGSLRLSCAASGFIFYTYAMGWYRQAPGKERELVAAISRGGRTNYADSVKGRFTISRDNAKNTVYLQMNSLKPEDTAVYYCASSYSHRYDYWGQGTQVTVSS”, the “polyreactivity (PSR sort gate)” value was “high polyreactivity”.
